Results from paper PMC2631105.

Target: rabbit muscle fructose-1,6-bisphosphate aldolase A D128V (rabbit)
Experiment: AUC

Substance: rabbit muscle fructose-1,6-bisphosphate aldolase A D128V (enzyme)
- stoichiometry N: 2
